In patent US20220177583A1:

Experiments:
[1] = biological target: T1, mouse CLDN6 fused to GFP, expressed on engineered HEK293T cells (mouse) (UniProt Q9Z262); test: FACS, 293T clone with mouse CLDN6
T1 sequence (looked up): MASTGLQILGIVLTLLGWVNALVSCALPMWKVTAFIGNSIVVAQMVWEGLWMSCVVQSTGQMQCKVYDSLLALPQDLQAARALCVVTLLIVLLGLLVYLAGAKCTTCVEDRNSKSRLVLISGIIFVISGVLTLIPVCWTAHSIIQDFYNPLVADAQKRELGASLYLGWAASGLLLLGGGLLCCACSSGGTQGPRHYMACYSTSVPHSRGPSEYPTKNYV

[2] = biological target: human CLDN6 fused to GFP, expressed on engineered HEK293T cells (human) (UniProt P56747); test: FACS, 293T clone with human CLDN6, 1.5 ug Ab
[3] = biological target: human CLDN6 fused to GFP, expressed on engineered HEK293T cells (human) (UniProt P56747); test: FACS, 293T clone with human CLDN6, 0.3 ug Ab
[4] = biological target: CLDN3/4 endogenously expressed on LS513 and MCF7 cells; test: FACS dose curve, labelled mAb, MCF7 cells
[5] = biological target: CLDN3/4 endogenously expressed on LS513 and MCF7 cells; test: FACS dose curve, labelled mAb, LS513 cells
[6] = biological target: human CLDN6 fused to GFP, expressed on engineered HEK293T cells (human) (UniProt P56747); test: FACS dose curve, labelled mAb, HEK293T-CLDN6-mGFP cells
[7] = biological target: human CLDN6 fused to GFP, expressed on engineered HEK293T cells (human) (UniProt P56747); test: KinExA 4000, cell-based equilibrium titration; Cell Model HEK293T CLDN6-mGFP A11, Cells Detached by Versene; Equilibrium Curves 500pM, 10nM
[8] = biological target: human CLDN6 fused to GFP, expressed on engineered HEK293T cells (human) (UniProt P56747); test: FACS on 293T CLDN6 mGFP Clone A11 cells, scFv followed by secondary antibody; number from the data table under the bars

B1: AB4-chim (antibody, V domains shown)
VH: QVQLQQSGAELARPGASVKMSCKASGYTFTSYTMHWIKQRPGQGQEWIGYINPSSTYTHYIKKFKDKATLTADKSSSTAYMQLRSLTSEDSAVYYCSRGELGGFAYWGQGTLVTVSA
VL: DVVMTQTPLSLPVSLGDQASISCRSSQSLVHSDGNTYLNWYLQKPGQSPKLLIYKVSNRFSGVPDRFSGSGSGTDFTLKIRRVEAEDLGVYFCSQSTHVPYTFGGGTKLEIK
[1]
  FACS signal: 3640
[2]
  FACS signal: 327000
[3]
  FACS signal: 176000

B2: AB17 (antibody, V domains shown)
VH: QVQLQQSGAELAKPGASVKMSCKASGYTFTGYWMHWVKQRPGQGLEWLGYINPSTGYTESNQKFKDKATLTADKSSTTAYMQLRSLTPEDSAVYYCAREGITTVLVDYWGQGTTLTVSS
VL: QIVLTQSPAIMSASLGERVTMTCTASSSVSSSYLHWYQQKPGSSPKLWIYSTSNLASGVPARFSGSGSGTSYSLTISSMEAEDAATYYCHQYHRSPPTFGAGTKLELK
[4]
  EC50: 5 µM
[5]
  EC50: 5 µM
[6]
  EC50: 2.65 µM

B3: AB3-7 conjugated to MC-VC-PAB-MMAE (conventional) (antibody, V domains shown)
VH: EVQLLESGGGLVQPGGSMRLSCAASGFTFSNYWMNWVRQAPGKGLEWVAQIRLKSDNYATHYADSVKGRFTISRDDSKNTVYLQMNSLRAEDTGVYYCNDGPPSGSWGQGTLLTVSS
VL: DIQMTQSPSSLSASVGDRVTITCRISENIYSYLAWYQQKPGKAPKLLVYNAKILVEGVPSRFSGSGSGTDFTLTISSLQPEDFGTYYCQHHYTVPWTFGQGTKLEIK
modifications: MC-VC-PAB-MMAE conjugated to the antibody, heterogeneous (conventional); sites not stated
[7]
  Kd: 0.00668 µM

B4: AB3-7 conjugated to MC-VC-PAB-DXD (antibody, V domains shown)
VH: EVQLLESGGGLVQPGGSMRLSCAASGFTFSNYWMNWVRQAPGKGLEWVAQIRLKSDNYATHYADSVKGRFTISRDDSKNTVYLQMNSLRAEDTGVYYCNDGPPSGSWGQGTLLTVSS
VL: DIQMTQSPSSLSASVGDRVTITCRISENIYSYLAWYQQKPGKAPKLLVYNAKILVEGVPSRFSGSGSGTDFTLTISSLQPEDFGTYYCQHHYTVPWTFGQGTKLEIK
modifications: MC-VC-PAB-DXD conjugated to the antibody; sites not stated
[7]
  Kd: 0.00342 µM

B5: AB3-7 conjugated to MC-GGFG-DXD (antibody, V domains shown)
VH: EVQLLESGGGLVQPGGSMRLSCAASGFTFSNYWMNWVRQAPGKGLEWVAQIRLKSDNYATHYADSVKGRFTISRDDSKNTVYLQMNSLRAEDTGVYYCNDGPPSGSWGQGTLLTVSS
VL: DIQMTQSPSSLSASVGDRVTITCRISENIYSYLAWYQQKPGKAPKLLVYNAKILVEGVPSRFSGSGSGTDFTLTISSLQPEDFGTYYCQHHYTVPWTFGQGTKLEIK
modifications: MC-GGFG-DXD conjugated to the antibody; sites not stated
[7]
  Kd: 0.00301 µM

B6: AB3-7 conjugated to CL2A-SN38 (D4 technology) (antibody, V domains shown)
VH: EVQLLESGGGLVQPGGSMRLSCAASGFTFSNYWMNWVRQAPGKGLEWVAQIRLKSDNYATHYADSVKGRFTISRDDSKNTVYLQMNSLRAEDTGVYYCNDGPPSGSWGQGTLLTVSS
VL: DIQMTQSPSSLSASVGDRVTITCRISENIYSYLAWYQQKPGKAPKLLVYNAKILVEGVPSRFSGSGSGTDFTLTISSLQPEDFGTYYCQHHYTVPWTFGQGTKLEIK
modifications: CL2A-SN38 conjugated to the antibody (D4); sites not stated
[7]
  Kd: 0.00287 µM

B7: AB3-7 (antibody, V domains shown)
VH: EVQLLESGGGLVQPGGSMRLSCAASGFTFSNYWMNWVRQAPGKGLEWVAQIRLKSDNYATHYADSVKGRFTISRDDSKNTVYLQMNSLRAEDTGVYYCNDGPPSGSWGQGTLLTVSS
VL: DIQMTQSPSSLSASVGDRVTITCRISENIYSYLAWYQQKPGKAPKLLVYNAKILVEGVPSRFSGSGSGTDFTLTISSLQPEDFGTYYCQHHYTVPWTFGQGTKLEIK
[2]
  FACS signal: 169000
[3]
  FACS signal: 106000
[7]
  Kd: 0.00113 µM

B8: AB3-7 conjugated to CL2A-SN38 (conventional) (antibody, V domains shown)
VH: EVQLLESGGGLVQPGGSMRLSCAASGFTFSNYWMNWVRQAPGKGLEWVAQIRLKSDNYATHYADSVKGRFTISRDDSKNTVYLQMNSLRAEDTGVYYCNDGPPSGSWGQGTLLTVSS
VL: DIQMTQSPSSLSASVGDRVTITCRISENIYSYLAWYQQKPGKAPKLLVYNAKILVEGVPSRFSGSGSGTDFTLTISSLQPEDFGTYYCQHHYTVPWTFGQGTKLEIK
modifications: CL2A-SN38 conjugated to the antibody, heterogeneous (conventional); sites not stated
[7]
  Kd: 0.00191 µM

B9: AB3-7 conjugated to MC-GGFG-MMAE (D4 technology) (antibody, V domains shown)
VH: EVQLLESGGGLVQPGGSMRLSCAASGFTFSNYWMNWVRQAPGKGLEWVAQIRLKSDNYATHYADSVKGRFTISRDDSKNTVYLQMNSLRAEDTGVYYCNDGPPSGSWGQGTLLTVSS
VL: DIQMTQSPSSLSASVGDRVTITCRISENIYSYLAWYQQKPGKAPKLLVYNAKILVEGVPSRFSGSGSGTDFTLTISSLQPEDFGTYYCQHHYTVPWTFGQGTKLEIK
modifications: MC-GGFG-MMAE conjugated to the antibody (D4); sites not stated
[7]
  Kd: 0.00101 µM

B10: AB3-7 conjugated to MC-VC-PAB-MMAE (D4 technology) (antibody, V domains shown)
VH: EVQLLESGGGLVQPGGSMRLSCAASGFTFSNYWMNWVRQAPGKGLEWVAQIRLKSDNYATHYADSVKGRFTISRDDSKNTVYLQMNSLRAEDTGVYYCNDGPPSGSWGQGTLLTVSS
VL: DIQMTQSPSSLSASVGDRVTITCRISENIYSYLAWYQQKPGKAPKLLVYNAKILVEGVPSRFSGSGSGTDFTLTISSLQPEDFGTYYCQHHYTVPWTFGQGTKLEIK
modifications: MC-VC-PAB-MMAE conjugated to the antibody, substantially 4 drugs per antibody (D4); sites not stated
[7]
  Kd: 0.00534 µM

B11: AB1-11 scFv (scFv)
scFv: DIQLTQSPSSLSASVGDRVTMTCTASSSVSSTYFHWYQQKPGKAPKLWIYSTSNLASGVPSRFSGSGSGTDYTLTISSMQPEDAATYYCHQYHRSPLTFGQGTKLEIKGGGGSGGGGSGGGGSQVQLVQSGAEVKKPGASVKMSCKASGYTFTTYTMHWVRQAPGQGLEWIGFINPSSGYTDYAQKFQGRVTLTADKSTSTVYMELSSLRSEDTAVYYCANGDYYVAYWGQGTLVTVSS
[8]
  FL4H Singlets in Viable cells: 125000

B12: AB18 (antibody, V domains shown)
VH: QVQLKQSGPELEKPGASVKISCKASGYSFTGYNMNWVKQSNGKSLEWIGNIDPYYGGSTYNQKFTGKATLTVDKSSSTAYMQLKSLTSEDSAVYYCARERSGYVFSAMDYWGQGTSVTVSS
VL: NIMMTQSPSSLAVSAGEKVTMSCKSSQSVLFSSNQKNYLAWYQQKPGQSPRLLIYWASTRESGVPDRFTGSGSGTDFTLTISNVQAEDLAVYYCHQYLSSRTFGAGTKLELK
[4]
  EC50: 5 µM
[5]
  EC50: 5 µM
[6]
  EC50: 5 µM

B13: AB19 (antibody, V domains shown)
VH: EVQLQQSGPELVKPGGSMKISCKASGYSFTGYTMNWVKRSHGKNLEWIGLINPYNGVTTYNQNFKGKATLAVDKSSSTAYMELLGLTSEDSAVYYCTRDPLYYGYRDSTMDYWGQGTSVTVSS
VL: NIMMTQSPSSLAVSAGEKVTMSCKSSQSVLFSSNQKNYLAWYQQKPGQSPRLLIYWASTRESGVPDRFTGSGSGTDFTLTISNVQAEDLAVYYCHQYLSSRTFGAGTKLELK
[4]
  EC50: 5 µM
[5]
  EC50: 5 µM
[6]
  EC50: 5 µM

B14: AB15 (antibody, V domains shown)
VH: DVQLVESGGGLVQPRGSRKLSCAASGFTFSSFGMHWVRQAPEKGLEWVAYISSDSRTIYYADTVKGRFTISRDNPTNTLFLQMTSLRSEDTAMYYCARDYGRTYEAYWGQGTLVTVSA
VL: NIMMTQSPSSLAVSAGEKVTMSCKSSQSVLFSSNQKNYLAWYQQKPGQSPRLLIYWASTRESGVPDRFTGSGSGTDFTLTISNVQAEDLAVYYCHQYLSSRTFGAGTKLELK
[4]
  EC50: 5 µM
[5]
  EC50: 5 µM
[6]
  EC50: 5 µM

B15: AB3-7 scFv (scFv)
scFv: DIQMTQSPSSLSASVGDRVTITCRISENIYSYLAWYQQKPGKAPKLLVYNAKILVEGVPSRFSGSGSGTDFTLTISSLQPEDFGTYYCQHHYTVPWTFGQGTKLEIKGGGGSGGGGSGGGGSEVQLLESGGGLVQPGGSMRLSCAASGFTFSNYWMNWVRQAPGKGLEWVAQIRLKSDNYATHYADSVKGRFTISRDDSKNTVYLQMNSLRAEDTGVYYCNDGPPSGSWGQGTLLTVSS
[8]
  FL4H Singlets in Viable cells: 132000
